Measurements taken from US20020028208A1 (TEXAS A AND M UNIVERSITY SYSTEM, published 2002).

B1: feline CD80 (B7-1)-TAMU, surface expressed on feCD80/pSI transfected COS-7 cells (ligand)
chain: ASLFYFCSGIIQVNKTVEEVAVLSCDYNISTKELTEIRIYWQKDDEMVLAVMSGKVQVWPKYKNRTFTDVTDNHSIVIMALRLSDNGKYTCIIQKIEKGSYKVKHLTSVMLLVRADFPVPSITDLGNPSHNIKRIMCLTSGGFPKPHLSWLENEEELNAINTTVSQDPETELYTISSELDFNMTNNHSFLCLVKYGNLLVSQIFNWQKSEPQPSNNQLWIIILSSVVSGIVVITALTLRCLVHRPAARWRQREMGRARKWKRSHLST
notes: also called CD80-pSI transfected COS cells
B2: feline CD28, surface expressed on CD28-pSI transfected COS-7 cells (receptor)
chain: NKILVKQLPRLVVYNNEVNLSCKYTHNFFSKEFRASLYKGVDSAVEVCVVNGNYSHQPQFYSSTGFDCDGKLGNETVTFYLRNLFVNQTDIYFCKIEVMYPPPYIDNEKSNGTIIHVKEKHLCPAQLSPESSKPFWALVVVGGILGFYSLLATVALGACWMKTKRSRILQSDYMNMTPRRPGPTRRHYQPYAPARDFAAYRS
notes: also called feCD28; CD28 pSI transfected cells

Key:
[1] = biological target: B2; assay: cell-cell adhesion assay at 1x10^6 labeled CD80-pSI COS-7 cells on a CD28-pSI COS-7 monolayer; still significantly higher at 5x10^5 cells, not distinguishable at 1x10^5 and 1x10^4
Method: (§1) Binding assays for transfected cells expressing feline CD80 and feline CD28 were performed after the protocol described in Linsley et al., 1994a. One day after transfection, CD28 expressing COS-7 cells were removed from T-75 flasks with trypsin-EDTA treatment. The cells were allowed to adhere in 24 well plates at a concentration of 1×10⁵ cells per ml. Two days later, the feCD80/pSI transfected COS-7 cells were removed from T-75 flasks with PBS/0.5 […] EDTA. These cells were then fluorescently labeled with a 5 μM solution of Calcein AM (Molecular Probes, Eugene, Oreg.) in sterile PBS/1% BSA for 30 min at 37° C. (Akeson and Woods, 1993). Mock transfected COS-7 cells were labeled in the same fashion. The labeled cells were then washed three times with DMEM plus 10% FCS to remove unincorporated label, counted, and added directly to the monolayer. The two cell populations were allowed to interact for 1 hr at 37° C. Nonadherent cells were removed by gently washing the monolayer 3 times with DMEM +10% FCS. Following the washing, the fluorescence of each of the wells was quantitated on a microplate fluorimeter. Fluorescence in wells containing transfected populations was compared to wells in which CD80 expressing cells were added to COS-7 cells transfected with pSI plasmid alone. […]

[2] = biological target: T1, huCD80-Ig fusion protein (human, UniProt P33681 35-241); assay: competitive cell-cell adhesion assay: CD28-pSI COS-7 monolayer pre-incubated with CD80 Ig at 1 ug/ml for 30 min and washed before labeled CD80-pSI COS-7 cells were added
T1 construct: Provided by P. Linsley, Bristol-Meyers Squibb; also called soluble CD80 receptor; soluble receptor for CD28; not shown: Ig part of the fusion
T1 sequence (looked up): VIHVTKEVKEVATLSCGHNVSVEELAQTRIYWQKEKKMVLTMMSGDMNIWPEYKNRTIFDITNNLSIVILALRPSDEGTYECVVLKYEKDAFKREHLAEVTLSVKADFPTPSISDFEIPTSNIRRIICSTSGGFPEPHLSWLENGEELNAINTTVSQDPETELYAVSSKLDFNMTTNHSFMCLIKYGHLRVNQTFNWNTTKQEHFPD
Method: as §1

For B1, the “fluorescence retained, fold over wells with mock transfected adherent cells” value [1] was roughly 5 fold.

B2: binds [2].
